Data: US20140187615, “THERAPEUTIC POLYNUCLEOTIDES, COMPOSITIONS, AND METHODS” (Regents of the University of Minnesota, published 2014)

Columns and labels:
[1] = molecular target: T1, phospholamban (PLN), pentameric (UniProt P61015); experiment: FP; settings: ACE Kd 0.5 ± 0.1 nM; also gel shift (FIG. 1C); MOPS, 0.1% C12E8, 1 mM MgCl2, 5 mM CaCl2, pH 7.0
T1 sequence: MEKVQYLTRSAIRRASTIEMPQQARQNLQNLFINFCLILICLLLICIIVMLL

[2] = molecular target: T2, phospholamban (PLN), pentameric (UniProt P61015 P61015:1-52); experiment: FP; ACE Kd 260 ± 180 nM; MOPS, 0.1% C12E8, 1 mM MgCl2, 5 mM CaCl2, pH 7.0; settings: chain copies: 5 (stated pentameric); label: 5'-FAM
T2 sequence: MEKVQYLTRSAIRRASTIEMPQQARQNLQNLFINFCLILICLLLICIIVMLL

[3] = molecular target: T2, phospholamban (PLN), pentameric; experiment: FP; ACE Kd 6.5 ± 0.9 nM; MOPS, 0.1% C12E8, 1 mM MgCl2, 5 mM CaCl2, pH 7.0; settings: chain copies: 5 (stated pentameric); label: 5'-FAM
[4] = molecular target: T2, phospholamban (PLN), pentameric; experiment: FP; ACE Kd 24 ± 5 nM; MOPS, 0.1% C12E8, 1 mM MgCl2, 5 mM CaCl2, pH 7.0; settings: chain copies: 5 (stated pentameric); label: 5'-FAM
[5] = molecular target: T2, phospholamban (PLN), pentameric; experiment: FP; ACE Kd 1.2 ± 0.4 nM; MOPS, 0.1% C12E8, 1 mM MgCl2, 5 mM CaCl2, pH 7.0; settings: chain copies: 5 (stated pentameric); label: 5'-FAM
[6] = molecular target: T2, phospholamban (PLN), pentameric; experiment: FP; ACE Kd 80 ± 40 nM; MOPS, 0.1% C12E8, 1 mM MgCl2, 5 mM CaCl2, pH 7.0; settings: chain copies: 5 (stated pentameric); label: 5'-FAM

**Q.** How did the Kd [1] turn out when “NNNNNNNNNNNNNNNNNNNNNNNNNNNNNNNNNNNNNNNNNNNNNNNNNNNNNNNNNNNNNNNNNNNNNNNNNNNNNNNN [ssDNA random 80-mer]” was run?
**A.** Its Kd is 3.1 nM.

**Q.** How did the Kd [2] turn out when ATAGCTTGCA (ssDNA) [ssDNA 10-mer] was run?
**A.** Its Kd is 35 nM.

**Q.** For AGCAGCACAGAGGTCAGATG (ssDNA) [ssDNA 20-mer], which Kd [3] is on record?
**A.** Its Kd is 1.8 nM.

**Q.** How did the Kd [4] turn out when ACTGAGCATGGGATAACCGTTCTCAGACTT (ssDNA) [ssDNA 30-mer] was run?
**A.** The Kd was 21 nM.

**Q.** With AGCAGCACAGAGGTCAGATGCAGGTAGGGTCCTATGCGTGCTACCGTGAA (ssDNA) [ssDNA 50-mer] as the molecule, how does the Kd [5] read?
**A.** Its Kd is 5 nM.

**Q.** With AGTGATAGCTATGGT (ssDNA) [ssDNA 15-mer] as the molecule, how does the Kd [6] read?
**A.** Its Kd is 3.1 nM.
